Tests used:
C1s, P09871 = target: T1, C1s, P09871
T1 chain: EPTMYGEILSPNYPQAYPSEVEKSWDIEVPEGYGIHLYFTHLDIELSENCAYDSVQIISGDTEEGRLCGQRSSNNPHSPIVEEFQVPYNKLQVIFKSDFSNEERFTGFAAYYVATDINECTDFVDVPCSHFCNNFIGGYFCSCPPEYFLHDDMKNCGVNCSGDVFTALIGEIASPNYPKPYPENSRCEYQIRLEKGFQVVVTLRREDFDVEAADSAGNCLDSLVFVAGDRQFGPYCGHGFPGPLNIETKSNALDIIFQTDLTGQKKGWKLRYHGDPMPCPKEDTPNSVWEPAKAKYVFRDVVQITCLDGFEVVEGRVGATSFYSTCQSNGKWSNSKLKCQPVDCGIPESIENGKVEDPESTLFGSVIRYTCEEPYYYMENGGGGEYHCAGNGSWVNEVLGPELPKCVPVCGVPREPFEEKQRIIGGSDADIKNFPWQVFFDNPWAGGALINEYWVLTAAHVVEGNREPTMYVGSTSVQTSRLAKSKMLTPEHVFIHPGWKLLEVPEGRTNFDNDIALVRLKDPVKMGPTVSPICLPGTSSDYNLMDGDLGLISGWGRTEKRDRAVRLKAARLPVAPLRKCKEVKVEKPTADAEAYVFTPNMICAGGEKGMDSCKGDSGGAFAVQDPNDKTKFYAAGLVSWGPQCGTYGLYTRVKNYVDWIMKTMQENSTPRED

C2, P06681 = target: T2, C2, P06681
T2 chain: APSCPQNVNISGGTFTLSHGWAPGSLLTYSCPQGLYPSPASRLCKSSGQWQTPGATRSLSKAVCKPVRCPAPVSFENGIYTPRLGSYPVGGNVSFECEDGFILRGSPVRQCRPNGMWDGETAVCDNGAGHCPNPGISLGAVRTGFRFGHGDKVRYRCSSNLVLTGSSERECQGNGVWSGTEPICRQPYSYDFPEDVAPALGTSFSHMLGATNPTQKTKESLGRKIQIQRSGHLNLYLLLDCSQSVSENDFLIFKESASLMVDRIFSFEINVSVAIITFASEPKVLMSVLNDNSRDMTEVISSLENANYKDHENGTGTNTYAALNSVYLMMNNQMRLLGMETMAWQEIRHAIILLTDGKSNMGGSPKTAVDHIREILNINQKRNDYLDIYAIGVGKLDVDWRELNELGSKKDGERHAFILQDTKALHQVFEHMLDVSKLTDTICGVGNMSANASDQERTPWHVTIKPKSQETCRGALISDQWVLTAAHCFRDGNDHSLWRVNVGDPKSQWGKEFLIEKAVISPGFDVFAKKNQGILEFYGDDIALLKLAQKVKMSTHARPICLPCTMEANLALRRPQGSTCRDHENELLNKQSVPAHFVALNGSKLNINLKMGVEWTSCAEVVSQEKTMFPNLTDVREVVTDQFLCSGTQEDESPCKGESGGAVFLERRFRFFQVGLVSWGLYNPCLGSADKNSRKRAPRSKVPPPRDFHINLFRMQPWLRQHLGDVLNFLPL

C2a, P06681 = target: T3, C2a, P06681
T3 chain: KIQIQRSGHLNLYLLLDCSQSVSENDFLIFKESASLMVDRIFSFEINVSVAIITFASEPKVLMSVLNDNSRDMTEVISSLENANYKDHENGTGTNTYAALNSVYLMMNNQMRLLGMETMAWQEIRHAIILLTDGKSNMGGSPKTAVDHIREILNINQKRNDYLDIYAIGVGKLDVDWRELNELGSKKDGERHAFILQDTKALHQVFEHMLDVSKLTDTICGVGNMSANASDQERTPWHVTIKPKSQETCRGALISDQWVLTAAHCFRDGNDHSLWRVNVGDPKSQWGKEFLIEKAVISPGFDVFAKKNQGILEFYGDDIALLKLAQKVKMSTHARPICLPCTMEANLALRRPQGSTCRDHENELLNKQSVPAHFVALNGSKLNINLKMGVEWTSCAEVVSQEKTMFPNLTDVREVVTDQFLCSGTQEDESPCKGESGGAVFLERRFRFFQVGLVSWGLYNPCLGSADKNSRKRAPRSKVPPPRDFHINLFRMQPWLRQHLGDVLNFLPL

human C5a, P01031 = target: T4, human C5a, P01031
T4 chain: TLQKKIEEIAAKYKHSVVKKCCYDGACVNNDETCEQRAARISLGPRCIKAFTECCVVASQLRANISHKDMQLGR

Sequence of BSA, P02769 (P02769 25-607): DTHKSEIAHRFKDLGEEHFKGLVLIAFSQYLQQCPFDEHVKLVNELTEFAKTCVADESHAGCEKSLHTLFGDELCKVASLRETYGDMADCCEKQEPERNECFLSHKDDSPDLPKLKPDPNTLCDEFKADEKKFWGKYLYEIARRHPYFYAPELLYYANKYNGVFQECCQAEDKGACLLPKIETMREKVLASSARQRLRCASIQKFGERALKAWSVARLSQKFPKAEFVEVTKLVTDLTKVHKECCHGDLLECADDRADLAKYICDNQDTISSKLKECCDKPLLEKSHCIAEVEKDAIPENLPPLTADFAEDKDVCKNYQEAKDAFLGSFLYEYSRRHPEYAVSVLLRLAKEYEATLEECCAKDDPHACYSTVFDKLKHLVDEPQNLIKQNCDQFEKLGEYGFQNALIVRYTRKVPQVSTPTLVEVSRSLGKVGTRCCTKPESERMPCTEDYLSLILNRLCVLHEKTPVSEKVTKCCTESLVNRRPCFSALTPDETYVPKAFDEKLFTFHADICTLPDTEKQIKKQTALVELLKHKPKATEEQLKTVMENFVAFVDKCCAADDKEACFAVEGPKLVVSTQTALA
Sequence of mouse C3a, P01027 (P01027 671-748): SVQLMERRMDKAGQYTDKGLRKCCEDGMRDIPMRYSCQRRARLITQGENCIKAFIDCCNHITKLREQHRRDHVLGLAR

B1: PrtI(ProB) (protein)
chain: AIGETSVQNVKVSVAKNESDSQKFNNSQNLEQKTPQAAAANQNGSQVQNDHTETQLQNQQTTQSQVTQAHTEENNASSIPEPANQADHVKGNVQSAWDQGYKGQNTVVAVIDSGADTSHKDFQTMPSNPKLKQEDVQSKIDQQGYGKYVNEKFPYVYNYADRDNDYIKSDDNNQXNDSPHGQHVSGIIAADGHPEGDQQYVVGVAPEAQLMQLRVFGQFSDEKTDDVARAIYDATNLGADVIQMSLGQGVADQQLTNIEQKAVQYAIDHGVFVSISASNNGNSASVDNPSKVTAKGYGSGSEAGNYEPLNSGTVANPGASKNALTVAAETSGTGKDSDMASFSSWGPLSDFSLKPDLSAPGYQVVSTVNDNQYQTMSGTSMAGPFAAGSAALVIQRLKQTNPELKGAELVAATKALLMNSAKVQTQNGYTTPVSPRRQGAGQIDVGAATANPVYVTAADGTSSLSLRQVDEKTTFTLTFHNLTDQEQSYSFNDLGGGYTEQRDPDSGVFHEVQLAGAHVNGVGNFTLAPKEVKDLQYTLDLQGLNKNQPVEGWLHFTNDKDKSTVVVPYLAYYGDLTSENVFDQNANEEKPDIQGNRFVNENNYPLGVTDQESLKQLVNVDSDYNWQEVAKLYESGKVAFSPNDDHQSDLIKPYAYLKQNVKDLKVEILDAKGNVVRVVSDVQGVDKSYDESGVTKDASLSVSMRDNPDAFEWDGKVYDTKTGQMVTAPDGQYTYRFVATLWNEGPNQKQTADFPVVVDTQAPSLSVKYDSATHTLSGNYEDKGAGFTDYSYVTVQVNDKVFGYKLNEGESGFDNSEKTKGHFNFTLSSDALDALSGSLNKVSVTLSDVANNTTVKTVDVPAVKDQPAVSVWNATEGVEFNKNSKDYNKENDTYTLYGSAAQDFYLNGALVQVRDGKYEVPVKTTTQDLVFSTDQAGKNVLKSFTTFTPKAFFNWQNVDGFDGNFGVNIYSVKTNDPNNAVVQAAVPLGKNVKAYAQDYFTGEVYKGQVENGVATFHVHTSINQGEDGIFKRALLTGWSEVDGPAYNDKQVTSKAGVASSNHLGVYYTTDKVNRKVYTDRADLGVDVQDEAADLSSFGPTAYPGHALADLTTRTDPNPAIHFDYLNDNDTTRFGQNAVTDGYYDSVTKKFTVTGHVDPEVKSLTVLGDSSDENAPQNQVKLGKDGKFSFSFTTENVGQRPVAYIYTDQNGQKVRGTLNVVLDTVAPTLNVDQVNGNELEVKTNNPLFKLSGVVNDNLDGYRLYVNGNNIYREFLNSGYNKLAGLNTDGTDVNPYGPHNFEESFNLNDDNNQPTTHVFTIYVVDQVGNKVEKKIAVNYDPDYVA
modifications: not fully specified; X: residue not identified in the source
digestion (SDS-PAGE) (BSA, P02769): did not digest
proteolytic activity (SDS-PAGE) (C1s, P09871): None of the complement proteins tested show evidence of breakdown
proteolytic activity (SDS-PAGE) (C2, P06681): None of the complement proteins tested show evidence of breakdown
proteolytic activity (SDS-PAGE) (C2a, P06681): None of the complement proteins tested show evidence of breakdown
proteolytic activity (SDS-PAGE) (C3, P01024): None of the complement proteins tested show evidence of breakdown
protein cleavage assay (SDS-PAGE) (C3a, P01024): has activities against
proteolytic activity (control of enzyme stock) (C3a, P01024): shown to be active against C3a
digestion (SDS-PAGE) (Factor XI): did not digest
digestion (SDS-PAGE) (Factor XIII): did not digest
digestion (SDS-PAGE) (HSA, P02768): did not digest
protein cleavage assay (SDS-PAGE) (IL-10): has activities against
protein cleavage assay (SDS-PAGE) (IL-17): has activities against
protein cleavage assay (SDS-PAGE) (IL-3): has activities against
protein cleavage assay (SDS-PAGE) (TNF-α): has activities against
protein cleavage assay (SDS-PAGE) (human C5a, P01031): has activities against
protein cleavage assay (SDS-PAGE) (mouse C3a, P01027): has activities against

Source: patent US20210386836
